# Measured values reported in US20110053831A1.
# B1: SEQ ID NO 26 (peptide)
# peptide: RSDYKDDDDKAYQSM
# B2: SEQ ID NO 70 (peptide)
# peptide: RSDYKDDDDKANQLPKILAGRLIFIKC
# B3: SEQ ID NO 66 (peptide)
# peptide: RSDYKDDDDKAYQSIMAVAAQQPVAFLVGRQRRRGQVGIDSGDQHLRTPLFHELCRRRPCSLAWYQLMHRYRY
# B4: SEQ ID NO 34 (peptide)
# peptide: RSDYKDDDDKTYQSIKGPENKVKMYFLNDLNFSRRDAGFKARKDALDIASDYENISVVNIPLWGGVVQRIISSVKLSTFLCGLENKDVLIFNFPMAKPFWHILSFFHRLLKFRIVLLIDDKPCRRRPCSLTWYQLMHRYRY
# B5: SEQ ID NO 68 (peptide)
# peptide: RSDYKDDDDKAYQSISVVVVLVV
# B6: SEQ ID NO 40 (peptide)
# peptide: RSDYKDDDDKIYSSILWGTKWCVLLVITP
# B7: SEQ ID NO 32 (peptide)
# peptide: RSDYKDDDDKAYQESTKALVEGGADLILIETVLVVVVLVV
# B8: SEQ ID NO 72 (peptide)
# peptide: RSDYKDDDDKAYQSIIGAGKSTLIKALTGVYHADRGTIWLEGQAISPKNTAHAQQCRRRPCSLTWYQLMHRYRY
# B9: SEQ ID NO 56 (peptide)
# peptide: RSDYKDDDDKAYQSIRSGGIESSSKRER
# B10: SEQ ID NO 46 (peptide)
# peptide: RSDYKDDDDKLYQSLLTATKELLFVAPVAKAFTSCD
# B11: SEQ ID NO 36 (peptide)
# peptide: RSDYKDDDDKAYQSIIH
# B12: SEQ ID NO 28 (peptide)
# peptide: RSDYKDDDDKAYQSKRL
# B13: SEQ ID NO 58 (peptide)
# peptide: RSDYKDDDDKGLQGRRRQGYQSIKP
# B14: SEQ ID NO 44 (peptide)
# peptide: RSDYKDDDDKKDSIRRRGENISSQEVEAVLMSHPEVVNAAVYPVRGDLPGD
# B15: SEQ ID NO 50 (peptide)
# peptide: RSDYKDDDDKKDSIRRRGENISSQEVEAVLMSHPEVVNAAVYPVRGDLPGD
# B16: SEQ ID NO 54 (peptide)
# peptide: RSDYKDDDDKAYQSINSSPVLPENSQELSLHLKQHVTKS
# B17: SEQ ID NO 64 (peptide)
# peptide: RSDYKDDDDKAYQSISLAGYHGDTSRTFLVGSVSATARKLVEATQETMIDYTCRRRPCSLTWYQLMHRYRY
# B18: SEQ ID NO 42 (peptide)
# peptide: RSDYKDDDDKIIIYIFLNISNSIKNIFDNMGKIR
# B19: SEQ ID NO 48 (peptide)
# peptide: RSDYKDDDDKAYQSISFLSQ
# B20: SEQ ID NO 60 (peptide)
# peptide: RSDYKDDDDKGLQGRRQPGQQPQGRWSGRALPAHR
# B21: SEQ ID NO 62 (peptide)
# peptide: RSDYKDDDDKGLQGRRQPGQQPQGRWSGRALPAHR
# B22: SEQ ID NO 38 (peptide)
# peptide: RSDYKDDDDKLINQSYAYPYIY
# B23: SEQ ID NO 52 (peptide)
# peptide: RSDYKDDDDNTPHSSDGHNNP
# B24: SEQ ID NO 30 (peptide)
# peptide: RSDYKDDDDKAYQSIIANEEEREKNFASSKKDGSYTDLL
# Target: JUN1 fragment of c-Jun (UniProt P05412)
# Assay: cell-based or functional assay
row,Binder,decrease in growth of yeast on HTU media (reverse two-hybrid) [%]
1,B1,> 50
2,B2,> 50
3,B3,> 50
4,B4,> 50
5,B5,> 50
6,B6,> 50
7,B7,> 50
8,B8,> 50
9,B9,> 50
10,B10,> 50
11,B11,> 50
12,B12,> 50
13,B13,> 50
14,B14,> 50
15,B15,> 50
16,B16,> 50
17,B17,> 50
18,B18,> 50
19,B19,> 50
20,B20,> 50
21,B21,> 50
22,B22,> 50
23,B23,> 50
24,B24,> 50
